T1: IL1RL1 (UniProt Q01638 19-556, limits assumed)
T1 construct: whole, on cells; The flow cytometry used 'cytokine over-expressing Expi293 cells' against Expi293 parent cells
T1 sequence (looked up): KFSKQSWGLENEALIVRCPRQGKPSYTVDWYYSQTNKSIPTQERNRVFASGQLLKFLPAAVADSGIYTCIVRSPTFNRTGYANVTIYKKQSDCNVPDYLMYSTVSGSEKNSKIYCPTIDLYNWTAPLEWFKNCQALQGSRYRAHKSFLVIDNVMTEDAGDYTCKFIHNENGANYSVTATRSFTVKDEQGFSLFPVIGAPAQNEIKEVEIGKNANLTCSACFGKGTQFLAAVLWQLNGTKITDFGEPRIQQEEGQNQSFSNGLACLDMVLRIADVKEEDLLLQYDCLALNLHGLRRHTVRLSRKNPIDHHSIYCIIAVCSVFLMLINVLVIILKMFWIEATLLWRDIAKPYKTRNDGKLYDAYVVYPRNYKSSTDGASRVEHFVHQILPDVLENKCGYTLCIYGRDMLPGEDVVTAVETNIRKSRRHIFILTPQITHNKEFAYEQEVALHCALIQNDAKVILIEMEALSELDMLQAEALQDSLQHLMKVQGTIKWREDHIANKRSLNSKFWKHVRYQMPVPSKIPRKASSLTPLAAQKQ

T2: IL1RL1 (UniProt Q01638 19-328, limits assumed)
T2 construct: SPR analyte
T2 sequence (looked up): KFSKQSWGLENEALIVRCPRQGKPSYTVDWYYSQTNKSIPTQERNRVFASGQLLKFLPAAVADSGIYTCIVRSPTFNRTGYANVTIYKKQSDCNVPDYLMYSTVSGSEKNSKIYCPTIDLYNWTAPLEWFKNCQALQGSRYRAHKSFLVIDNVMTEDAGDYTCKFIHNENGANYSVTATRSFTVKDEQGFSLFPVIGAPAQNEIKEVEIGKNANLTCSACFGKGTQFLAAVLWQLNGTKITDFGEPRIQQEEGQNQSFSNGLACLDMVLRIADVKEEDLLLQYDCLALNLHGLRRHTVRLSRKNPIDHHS

T3: IL1RL1 over-expressed on Expi293 cells (UniProt Q01638 19-556, limits assumed)
T3 construct: whole, on cells; Target of the flow cytometry MFI ratio (over-expressing cells over parent cells); also called cytokine over-expressing Expi293 cells
T3 sequence (looked up): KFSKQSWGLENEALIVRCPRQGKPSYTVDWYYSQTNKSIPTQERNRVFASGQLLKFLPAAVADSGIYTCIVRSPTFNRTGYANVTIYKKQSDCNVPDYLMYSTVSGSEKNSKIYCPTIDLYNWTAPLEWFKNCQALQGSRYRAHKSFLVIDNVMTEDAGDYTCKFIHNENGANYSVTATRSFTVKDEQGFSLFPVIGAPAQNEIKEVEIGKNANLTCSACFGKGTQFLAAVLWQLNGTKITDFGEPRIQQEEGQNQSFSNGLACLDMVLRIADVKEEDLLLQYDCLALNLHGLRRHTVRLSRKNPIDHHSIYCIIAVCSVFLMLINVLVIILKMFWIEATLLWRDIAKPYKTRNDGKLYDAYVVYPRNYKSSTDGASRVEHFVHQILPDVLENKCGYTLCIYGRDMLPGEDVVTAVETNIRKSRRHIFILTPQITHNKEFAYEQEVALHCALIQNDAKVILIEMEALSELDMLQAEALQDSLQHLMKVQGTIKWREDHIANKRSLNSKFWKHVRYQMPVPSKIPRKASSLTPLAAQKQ

T4: IL1RL2 (UniProt Q9HB29 20-335, limits assumed)
T4 construct: Soluble analyte of the SPR runs
T4 sequence (looked up): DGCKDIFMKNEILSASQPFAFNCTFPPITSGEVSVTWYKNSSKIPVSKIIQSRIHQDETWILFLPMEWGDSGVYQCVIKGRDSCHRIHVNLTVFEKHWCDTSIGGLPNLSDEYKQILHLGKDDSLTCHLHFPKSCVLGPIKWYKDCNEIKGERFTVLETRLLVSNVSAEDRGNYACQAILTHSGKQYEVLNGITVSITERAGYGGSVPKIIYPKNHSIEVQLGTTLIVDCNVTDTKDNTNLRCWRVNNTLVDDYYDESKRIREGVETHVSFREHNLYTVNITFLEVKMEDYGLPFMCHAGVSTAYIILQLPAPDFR

T5: IL1RL2 over-expressed on Expi293 cells (UniProt Q9HB29 20-575, limits assumed)
T5 construct: whole, on cells; Target of the flow cytometry assay; MFI ratio is over-expressing cells over parent cells
T5 sequence (looked up): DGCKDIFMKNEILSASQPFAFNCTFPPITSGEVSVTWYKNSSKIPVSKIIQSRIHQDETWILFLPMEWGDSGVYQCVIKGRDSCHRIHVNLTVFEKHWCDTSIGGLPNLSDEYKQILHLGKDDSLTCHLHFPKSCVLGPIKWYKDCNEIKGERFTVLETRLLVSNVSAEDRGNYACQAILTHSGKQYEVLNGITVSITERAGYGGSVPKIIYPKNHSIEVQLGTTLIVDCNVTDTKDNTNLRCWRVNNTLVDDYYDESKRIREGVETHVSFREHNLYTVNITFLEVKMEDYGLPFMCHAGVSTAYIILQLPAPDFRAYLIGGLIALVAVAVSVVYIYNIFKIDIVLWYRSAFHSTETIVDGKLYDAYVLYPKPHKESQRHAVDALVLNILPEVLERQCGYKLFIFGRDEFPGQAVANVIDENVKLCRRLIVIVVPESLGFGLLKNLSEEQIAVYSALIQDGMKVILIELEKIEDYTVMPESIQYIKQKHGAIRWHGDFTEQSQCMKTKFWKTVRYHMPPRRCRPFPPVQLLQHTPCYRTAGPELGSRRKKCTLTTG


Key:
IL1RL1 [1] = target: T1, IL1RL1; experiment: flow cytometry, 100 nM IgG on IL1RL1 over-expressing Expi293 cells; MFI over that of Expi293 parent cells
Method: (§1) All incubations and washes were in buffer containing PBS+1% BSA. MFI Ratio is defined by the mean fluorescence intensity (MFI) of the cytokine over-expressing Expi293 cell over the Expi293 parent cell. […] EC50 was calculated in GraphPad Prism.

IL1RL1 [2] = target: T2, IL1RL1; experiment: SPR (Carterra LSA), antibody amine-coupled
Method: (§2) SPR experiments were performed on a Carterra LSA SPR biosensor equipped with a HC30M chip at 25° C. in HBS-TE. Antibodies were diluted to 10 μg/mL and amine-coupled to the sensor chip by EDC/NHS activation, followed by ethanolamine HCl quenching. Increasing concentrations of analyte were flowed over the sensor chip in HBS-TE with 0.5 mg/mL BSA with 5-minute association and 15-minute dissociation. Following each injection cycle the surface was regenerated with 2× 30-second injections of IgG elution buffer (Thermo). Data were analyzed in Carterra's Kinetics Tool software with 1:1 binding model.

[3] = target: T3, IL1RL1 over-expressed on Expi293 cells; experiment: flow cytometry, 100 nM antibody, over-expressing Expi293 / parent cells
Method: as §1

IL1RL2 = target: T4, IL1RL2; experiment: SPR (Carterra LSA), antibody immobilised, 1:1 model
Method: as §2

[4] = target: T5, IL1RL2 over-expressed on Expi293 cells; experiment: flow cytometry titration on over-expressing Expi293 cells
Method: as §1

[5] = target: T5, IL1RL2 over-expressed on Expi293 cells; experiment: flow cytometry, over-expressing Expi293 vs parent cells, 100 nM antibody;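 note: ratio is mean fluorescence intensity on over-expressing Expi293 cells divided by that measured on parental Expi293 cells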
Method: as §1

Row | Binder | 100 nM FACS (MFI Ratio) (IL1RL1 [1]) | binding result (IL1RL1 [2]) | 100 nM FACS (MFI Ratio) [3] | also measured
1 | IL1RL1-375 (antibody, V domains shown) VH: EVQLLESGGGLVQPGGSLRLSCAASGFAFSSYAMSWVRQAPGKGLELVSAISGSGDTSYYADSVKGRFTISRDNSKNTLYLQMNSLRAEDTAVYYCARVRRWSNFDYWGQGTLVTVSS VL: DIQMTQSPSSLSASVGDRVTITCRASQSISRYLSWYQQKPGKAPKLLIYAGSKLQRGVPSRFSGSGSGTDFTLTISSLQPEDFATYYCQQTYSTPIAFGGGTKVEIK | 11.3 MFI ratio | – | – | –
2 | IL1RL1-380 (antibody, V domains shown) VH: EVQLLESGGGLVQPGGPLRLSCAASGFSFSKFAMSWVRQAPGKGLEWVSGISGSGGNTYYADSVKGRFTISRDNSKNTLYLQMNSLRAEDTAVYYCVKGSRGSYRSSTLGPFKHWGQGTLVTVSS VL: DIQMTQSPSSLSASVGDRVTITCRTSQSISTYLNWYQQKPGKAPKLLIYAASRLQNGVPSRFSGSGSGTDFTLTISSLQPEDFATYYCQQSYSVPGTFGGGTKVEIK | 0.6 MFI ratio | – | – | –
3 | IL1RL1-377 (antibody, V domains shown) VH: EVQLLESGGGLVRPGGSLRLSCAASGFTFRNFAMSWVRQAPGKGLEWVSSISGSGDTTYYADSVKGRFTISRDNSKNTLYLQMNSLRAEDTAVYYCARHKRGRVAVAFPMDVWGQGTLVTVSS VL: DIQMTQSPSSLSASVGDRVTITCRASQNIGRYLNWYQQKPGKAPKLLIYGASTLQRGVPSRFSGSGSGTDFTLTISSLQPEDFATYYCQQSYSAPTFGGGTKVEIK | 1.21 MFI ratio | – | – | –
4 | IL1RL1-387 (antibody, V domains shown) VH: EVQLLESGGGLVQPGGSLRLSCAASGFTFNRYAMNWVRQAPGKGLEWVSTISASGGRTYYADSVKGRFTISRDNSKNTLYLQMNSLRAEDTAVYYCARGSLRLDTWGQGTLVTVSS VL: DIQMTQSPSSLSASVGDRVTITCRASQNIASYLNWYQQKPGKAPKLLIYGASRLQSGVPSRFSGSGSGTDFTLTISSLQPEDFATYYCQQSSTPRTFGGGTKVEIK | 1.06 MFI ratio | – | – | –
5 | IL1RL1-385 (antibody, V domains shown) VH: EVQLLESGGGLVQPGGSLRLSCAASGFTFNTFAMSWVRQAPGKGLELVSAISGSGGNTYYVDSVKGRFTISRDNSKNTLYLQMNSLRAEDTAVYYCARLGSGSSSSIDYWGQGTLVTVSS VL: DIQMTQSPSSLSASVGDRVTITCRASQYISTFLNWYQQKPGKAPKLLIYAASRLQDGVPSRFSGSGSGTDFTLTISSLQPEDFATYYCQQSYGSSWTFGGGTKVEIK | 7.61 MFI ratio | – | – | –
6 | IL1RL1-37 (Fc fusion, not shown: a dimerising Fc or GST, VHH-Fc on IgG2 Fc) VHH: EVQLVESGGGLVQPGGSLRLSCAASGGTFGSYAMGWFRQAPGKEREFVAAINWSGARTYYADSVKGRFTISADNSKNTAYLQMNSLKPEDTAVYYCAVSQPLNYYTYYDARRYDWGQGTLVTVSS | – | no binding | 1.25 MFI ratio | –
7 | IL1RL1-381 (antibody, V domains shown) VH: EVQLLESGGGLVQPGGSLRLSCAASGFTSSNYAMTWVRQAPGKGLEWVSSIIGSGGGTYYADSVKGRFTISRDNSKNTLYLQMNSLRAEDTAVYYCARGIPRRKKGAGLFDYWGQGTLVTVSS VL: DIQMTQSPSSLSASVGDRVTITCRASHSISSHLNWYQQKPGKAPKLLIYGASRLQRGVPSRFSGSGSGTDFTLTISSLQPEDFATYYCQQNYNTPFTFGGGTKVEIK | 0.85 MFI ratio | – | – | –
8 | IL1RL1-388 (antibody, V domains shown) VH: EVQLLESGGGLVQPGGSLRLSCAASGFTFSRFAMSWVRQAPGKGLEWVSGISGSSGNTYYADSVKGRFTISRDNSKNTLYLQMNSLRAEDTAVYYCAREKRLPIRRRSGEPLGNYFDYWGQGTLVTVSS VL: DIQMTQSPSSLSASVGDRVTITCRTSQSIRKYLNWYQQKPGKAPKLLIYASSRLQSGVPSRFSGSGSGTDFTLTISSLQPEDFATYYCQQNYRTPFTFGGGTKVEIK | 0.73 MFI ratio | – | – | –
9 | IL1RL1-41 (Fc fusion, not shown: a dimerising Fc or GST, VHH-Fc on IgG2 Fc) VHH: EVQLVESGGGLVQPGGSLRLSCAASGGTLSSYIMGWFRQAPGKEREGVAAIDSDGSTSYADSVKGRFTISADNSKNTAYLQMNSLKPEDTAVYYCAARPVRVDDISLPVGFDWGQGTLVTVSS | – | no binding | 0.55 MFI ratio | –
10 | IL1RL1-48 (Fc fusion, not shown: a dimerising Fc or GST, VHH-Fc on IgG2 Fc) VHH: EVQLVESGGGLVQPGGSLRLSCAASGTTFSSDVMGWFRQAPGKERELVAVIIDSRTTKYADSVKGRFTISADNSKNTAYLQMNSLKPEDTAVYYCAAVGGATTVTASEWDWGQGTLVTVSS | – | no binding | 1.06 MFI ratio | –
11 | IL1RL1-77 (Fc fusion, not shown: a dimerising Fc or GST, VHH-Fc on IgG2 Fc) VHH: EVQLVESGGGLVQPGGSLRLSCAASGRTFSSYVMGWFRQAPGKEREFVAVIIDSRTTKYADSVKGRFTISADNSKNTAYLQMNSLKPEDTAVYYCAAVGGATTVTASEWDWGQGTLVTVSS | – | no binding | 1.12 MFI ratio | –
12 | IL1RL1-42 (Fc fusion, not shown: a dimerising Fc or GST, VHH-Fc on IgG2 Fc) VHH: EVQLVESGGGLVQPGGSLRLSCAASGFILDYYAMGWFRQAPGKEREWVSSIGIAGTPTFYADSVKGRFTISADNSKNTAYLQMNSLKPEDTAVYYCAGRLSNGLDWGQGTLVTVSS | – | no binding | 0.86 MFI ratio | –
13 | IL1RL1-43 (Fc fusion, not shown: a dimerising Fc or GST, VHH-Fc on IgG2 Fc) VHH: EVQLVESGGGLVQPGGSLRLSCAASGRTYAMGWFRQAPGKEREWVASISTSGSTITPYADSVKGRFTISADNSKNTAYLQMNSLKPEDTAVYYCAANVASGLKILQWGQGTLVTVSS | – | no binding | 1.25 MFI ratio | –
14 | IL1RL2-27 (VHH, VHH-Fc based on IgG2 Fc) VHH: EVQLVESGGGLVQPGGSLRLSCAASGGRFSTYDMGWFRQAPGKEREFVASIVWIGGRTYYADSVKGRFTISADNSKNTAYLQMNSLKPEDTAVYYCADVNGDWGQGTLVTVSS | – | – | – | Kd (IL1RL2): 1.32 nM; koff (IL1RL2): 0.000143 s⁻¹; kon (IL1RL2): 108000 M⁻¹ s⁻¹; EC50 [4]: 64.2 nM; 100 nM FACS (MFI Ratio) [5]: 14
15 | IL1RL1-51 (Fc fusion, not shown: a dimerising Fc or GST, VHH-Fc on IgG2 Fc) VHH: EVQLVESGGGLVQPGGSLRLSCAASGVTLDLYAMGWFRQAPGKEREWVSSIGIAGTPTFYADSVKGRFTISADNSKNTAYLQMNSLKPEDTAVYYCAANYGGSVLYNWGQGTLVTVSS | – | no binding | 1.28 MFI ratio | –
